# From patent US20190225669A1 (ACCELERON PHARMA, published 2019)
# Where two headings read alike, the source gives them in different places.
# T1: activin B (UniProt P09529 293-407)
# T1 sequence (looked up): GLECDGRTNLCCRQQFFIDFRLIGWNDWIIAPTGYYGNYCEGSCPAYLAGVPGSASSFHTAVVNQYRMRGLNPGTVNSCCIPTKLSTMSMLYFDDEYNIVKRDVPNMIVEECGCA
# T2: BMP7 (UniProt P18075 293-431)
# T2 sequence (looked up): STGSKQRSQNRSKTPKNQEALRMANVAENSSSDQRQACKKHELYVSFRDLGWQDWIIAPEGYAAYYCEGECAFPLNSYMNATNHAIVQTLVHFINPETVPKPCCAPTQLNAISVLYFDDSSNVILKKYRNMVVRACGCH
# T3: BMP15 (UniProt O95972 268-392)
# T3 construct: also called GDF9b
# T3 sequence (looked up): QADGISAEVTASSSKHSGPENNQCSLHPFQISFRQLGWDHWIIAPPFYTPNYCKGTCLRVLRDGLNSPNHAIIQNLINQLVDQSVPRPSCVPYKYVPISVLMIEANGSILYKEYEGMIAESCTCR
# T4: BMP10 (UniProt O95393 317-424)
# T4 sequence (looked up): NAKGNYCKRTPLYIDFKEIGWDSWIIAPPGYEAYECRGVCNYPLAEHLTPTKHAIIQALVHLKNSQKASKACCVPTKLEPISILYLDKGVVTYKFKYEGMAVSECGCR
# T5: BMP5 (UniProt P22003 317-454, limits assumed)
# T5 sequence (looked up): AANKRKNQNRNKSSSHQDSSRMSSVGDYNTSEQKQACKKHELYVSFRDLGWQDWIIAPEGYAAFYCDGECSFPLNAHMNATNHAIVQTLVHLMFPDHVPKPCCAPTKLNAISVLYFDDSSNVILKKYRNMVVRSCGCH
# T6: BMP9 (UniProt Q9UK05 320-429)
# T6 construct: also called GDF2
# T6 sequence (looked up): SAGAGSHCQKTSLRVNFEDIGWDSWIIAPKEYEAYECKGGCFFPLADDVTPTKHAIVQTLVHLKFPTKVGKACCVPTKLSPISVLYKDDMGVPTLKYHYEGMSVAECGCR
# T7: activin A (UniProt P08476 311-426)
# T7 sequence (looked up): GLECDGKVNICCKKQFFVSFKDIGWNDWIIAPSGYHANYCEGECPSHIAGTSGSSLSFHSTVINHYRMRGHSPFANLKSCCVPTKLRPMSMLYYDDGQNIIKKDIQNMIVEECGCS
# T8: GDF8 (UniProt O14793 267-375)
# T8 construct: also called myostatin
# T8 sequence (looked up): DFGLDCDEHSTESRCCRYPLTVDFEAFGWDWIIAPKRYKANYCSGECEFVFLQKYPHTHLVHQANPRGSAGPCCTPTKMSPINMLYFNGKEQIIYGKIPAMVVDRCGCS
# T9: GDF11 (UniProt O95390 299-407)
# T9 construct: also called BMP11
# T9 sequence (looked up): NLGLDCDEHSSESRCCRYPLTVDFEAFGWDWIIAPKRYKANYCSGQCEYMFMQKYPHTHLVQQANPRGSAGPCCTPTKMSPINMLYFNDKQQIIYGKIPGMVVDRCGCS
# T10: GDF3 (UniProt Q9NR23 251-364)
# T10 sequence (looked up): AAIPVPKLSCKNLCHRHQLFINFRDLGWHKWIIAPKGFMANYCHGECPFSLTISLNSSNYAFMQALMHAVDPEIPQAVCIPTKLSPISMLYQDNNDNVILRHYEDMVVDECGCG
# T11: BMP6 (UniProt P22004 382-513, limits assumed)
# T11 sequence (looked up): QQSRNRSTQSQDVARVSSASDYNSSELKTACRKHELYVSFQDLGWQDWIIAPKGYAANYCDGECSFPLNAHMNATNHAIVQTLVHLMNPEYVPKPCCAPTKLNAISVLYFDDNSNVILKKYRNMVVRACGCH
# T12: activin AB (UniProt P08476 311-426; P09529 293-407)
# T12 sequence (looked up) 1: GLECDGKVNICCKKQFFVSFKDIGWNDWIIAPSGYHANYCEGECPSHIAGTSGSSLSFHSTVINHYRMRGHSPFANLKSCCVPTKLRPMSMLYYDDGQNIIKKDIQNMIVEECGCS
# T12 sequence (looked up) 2: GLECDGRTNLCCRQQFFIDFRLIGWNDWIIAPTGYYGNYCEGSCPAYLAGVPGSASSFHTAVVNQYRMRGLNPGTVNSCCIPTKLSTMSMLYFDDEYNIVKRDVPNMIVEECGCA
# What was measured:
# activin B [1] = target: T1, activin B; assay: Biacore SPR
# Experimental: (§1) A Biacore™-based binding assay was used to compare ligand binding selectivity of the BMPRII-Fc:ALK2-Fc heterodimeric complex described above with that of BMPRII-Fc and ALK2-Fc homodimeric complexes. […] Ligands were injected and allowed to flow over the captured receptor protein.
# BMP7 = target: T2, BMP7; assay: Biacore SPR
# Experimental: as §1
# BMP15 [2] = target: T3, BMP15; assay: Biacore SPR
# Experimental: as §1
# BMP10 [3] = target: T4, BMP10; assay: Biacore SPR
# Experimental: as §1
# BMP5 = target: T5, BMP5; assay: Biacore SPR
# Experimental: as §1
# BMP9 [4] = target: T6, BMP9; assay: Biacore SPR
# Experimental: as §1
# BMP9 [5] = target: T6, BMP9; assay: Biacore SPR; kinetics indeterminate (transient)
# Experimental: (§2) Ligands were injected and allowed to flow over the captured receptor protein.
# activin A [6] = target: T7, activin A; assay: Biacore SPR
# Experimental: as §2
# GDF8 = target: T8, GDF8; assay: Biacore SPR
# Experimental: as §2
# activin B [7] = target: T1, activin B; assay: Biacore SPR; remark: listed apart in the source
# Experimental: as §2
# GDF11 = target: T9, GDF11; assay: Biacore SPR
# Experimental: as §2
# BMP10 [8] = target: T4, BMP10; assay: Biacore SPR; remark: listed apart in the source
# Experimental: as §2
# GDF3 = target: T10, GDF3; assay: Biacore SPR
# Experimental: as §2
# BMP6 = target: T11, BMP6; assay: Biacore SPR
# Experimental: as §2
# activin AB = target: T12, activin AB; assay: Biacore SPR
# Experimental: as §2
# activin A [9] = target: T7, activin A; assay: Biacore SPR; remark: listed apart in the source
# Experimental: as §2
# activin B [10] = target: T1, activin B; assay: Biacore SPR; remark: listed apart in the source
# Experimental: as §2
# BMP15 [11] = target: T3, BMP15; assay: Biacore SPR; remark: listed apart in the source
# Experimental: as §2
# BMP10 [12] = target: T4, BMP10; assay: Biacore SPR; remark: listed apart in the source
# Experimental: as §2
binder,measurement,setting,value
"BMPRII-Fc:ALK2-Fc heterodimer (Fc fusion, C-terminal Lys optional; also called BMPRII-Fc:ALK2-Fc heterodimeric complex) chain 1: SQNQERLCAFKDPYQQDLGIGESRISHENGTILCSKGSTCYGLWEKSKGDINLVKQGCWSHIGDPQECHYEECVVTTTPPSIQNGTYRFCCCSTDLCNVNFTENFPPPDTTPLSPPHSFNRDETGGGTHTCPPCPAPELLGGPSVFLFPPKPKDTLMISRTPEVTCVVVDVSHEDPEVKFNWYVDGVEVHNAKTKPREEQYNSTYRVVSVLTVLHQDWLNGKEYKCKVSNKALPAPIEKTISKAKGQPREPQVYTLPPSRKEMTKNQVSLTCLVKGFYPSDIAVEWESNGQPENNYKTTPPVLKSDGSFFLYSKLTVDKSRWQQGNVFSCSVMHEALHNHYTQKSLSLSPGK chain 2: MEDEKPKVNPKLYMCVCEGLSCGNEDHCEGQQCFSSLSINDGFHVYQKGCFQVYEQGKMTCKTPPSPGQAVECCQGDWCNRNITAQLPTKGKSFPGTQNFHLETGGGTHTCPPCPAPELLGGPSVFLFPPKPKDTLMISRTPEVTCVVVDVSHEDPEVKFNWYVDGVEVHNAKTKPREEQYNSTYRVVSVLTVLHQDWLNGKEYKCKVSNKALPAPIEKTISKAKGQPREPQVYTLPPSREEMTKNQVSLTCLVKGFYPSDIAVEWESNGQPENNYDTTPPVLDSDGSFFLYSDLTVDKSRWQQGNVFSCSVMHEALHNHYTQKSLSLSPG",Kd,activin B [1],5.2 nM
same,koff,activin B [1],0.0031 s⁻¹
same,kon,activin B [1],590000 M⁻¹ s⁻¹
same,Kd,BMP7,0.76 nM
same,koff,BMP7,0.012 s⁻¹
same,kon,BMP7,1.5e+07 M⁻¹ s⁻¹
same,Kd,BMP15 [2],1.1 nM
same,koff,BMP15 [2],0.011 s⁻¹
same,kon,BMP15 [2],9.6e+06 M⁻¹ s⁻¹
same,Kd,BMP10 [3],0.3 nM
same,koff,BMP10 [3],0.034 s⁻¹
same,kon,BMP10 [3],1.1e+08 M⁻¹ s⁻¹
same,Kd,BMP5,2.8 nM
same,koff,BMP5,0.005 s⁻¹
same,kon,BMP5,1.8e+06 M⁻¹ s⁻¹
same,Kd,BMP9 [4],0.5 nM
same,koff,BMP9 [4],0.0051 s⁻¹
same,kon,BMP9 [4],1e+07 M⁻¹ s⁻¹
"ActRIIB-Fc:ALK4-Fc heterodimer (Fc fusion, C-terminal Lys optional; also called ActRIIB-Fc:ALK4-Fc heterodimeric complex; ActRIIB-Fc:ALK4-Fc heteromeric complex) chain 1: GRGEAETRECIYYNANWELERTNQSGLERCEGEQDKRLHCYASWRNSSGTIELVKKGCWLDDFNCYDRQECVATEENPQVYFCCCEGNFCNERFTHLPEAGGPEVTYEPPPTAPTGGGTHTCPPCPAPELLGGPSVFLFPPKPKDTLMISRTPEVTCVVVDVSHEDPEVKFNWYVDGVEVHNAKTKPREEQYNSTYRVVSVLTVLHQDWLNGKEYKCKVSNKALPAPIEKTISKAKGQPREPQVYTLPPSRKEMTKNQVSLTCLVKGFYPSDIAVEWESNGQPENNYKTTPPVLKSDGSFFLYSKLTVDKSRWQQGNVFSCSVMHEALHNHYTQKSLSLSPGK chain 2: SGPRGVQALLCACTSCLQANYTCETDGACMVSIFNLDGMEHHVRTCIPKVELVPAGKPFYCLSSEDLRNTHCCYTDYCNRIDLRVPSGHLKEPEHPSMWGPVETGGGTHTCPPCPAPELLGGPSVFLFPPKPKDTLMISRTPEVTCVVVDVSHEDPEVKFNWYVDGVEVHNAKTKPREEQYNSTYRVVSVLTVLHQDWLNGKEYKCKVSNKALPAPIEKTISKAKGQPREPQVYTLPPSREEMTKNQVSLTCLVKGFYPSDIAVEWESNGQPENNYDTTPPVLDSDGSFFLYSDLTVDKSRWQQGNVFSCSVMHEALHNHYTQKSLSLSPG",Kd,BMP9 [5],3.4 nM
same,Kd,activin A [6],0.012 nM
same,koff,activin A [6],0.00015 s⁻¹
same,kon,activin A [6],1.3e+07 M⁻¹ s⁻¹
same,Kd,GDF8,0.55 nM
same,koff,GDF8,0.00021 s⁻¹
same,kon,GDF8,390000 M⁻¹ s⁻¹
same,Kd,activin B [7],0.006 nM
same,koff,activin B [7],4e-05 s⁻¹
same,kon,activin B [7],7.1e+06 M⁻¹ s⁻¹
same,Kd,GDF11,0.003 nM
same,koff,GDF11,0.00011 s⁻¹
same,kon,GDF11,3.8e+07 M⁻¹ s⁻¹
same,Kd,BMP10 [8],0.074 nM
same,koff,BMP10 [8],0.0041 s⁻¹
same,kon,BMP10 [8],5.6e+07 M⁻¹ s⁻¹
same,Kd,GDF3,4.9 nM
same,koff,GDF3,0.017 s⁻¹
same,kon,GDF3,3.4e+06 M⁻¹ s⁻¹
same,Kd,BMP6,2.7 nM
same,koff,BMP6,0.0055 s⁻¹
same,kon,BMP6,2e+06 M⁻¹ s⁻¹
"BMPRII-Fc:ALK4-Fc heterodimer (Fc fusion, C-terminal Lys optional; also called BMPRII-Fc:ALK4-Fc heterodimeric complex) chain 1: SQNQERLCAFKDPYQQDLGIGESRISHENGTILCSKGSTCYGLWEKSKGDINLVKQGCWSHIGDPQECHYEECVVTTTPPSIQNGTYRFCCCSTDLCNVNFTENFPPPDTTPLSPPHSFNRDETGGGTHTCPPCPAPELLGGPSVFLFPPKPKDTLMISRTPEVTCVVVDVSHEDPEVKFNWYVDGVEVHNAKTKPREEQYNSTYRVVSVLTVLHQDWLNGKEYKCKVSNKALPAPIEKTISKAKGQPREPQVYTLPPSRKEMTKNQVSLTCLVKGFYPSDIAVEWESNGQPENNYKTTPPVLKSDGSFFLYSKLTVDKSRWQQGNVFSCSVMHEALHNHYTQKSLSLSPGK chain 2: SGPRGVQALLCACTSCLQANYTCETDGACMVSIFNLDGMEHHVRTCIPKVELVPAGKPFYCLSSEDLRNTHCCYTDYCNRIDLRVPSGHLKEPEHPSMWGPVETGGGTHTCPPCPAPELLGGPSVFLFPPKPKDTLMISRTPEVTCVVVDVSHEDPEVKFNWYVDGVEVHNAKTKPREEQYNSTYRVVSVLTVLHQDWLNGKEYKCKVSNKALPAPIEKTISKAKGQPREPQVYTLPPSREEMTKNQVSLTCLVKGFYPSDIAVEWESNGQPENNYDTTPPVLDSDGSFFLYSDLTVDKSRWQQGNVFSCSVMHEALHNHYTQKSLSLSPG",Kd,activin AB,0.14 nM
same,koff,activin AB,0.0005 s⁻¹
same,kon,activin AB,3.6e+06 M⁻¹ s⁻¹
same,Kd,activin A [9],1.1 nM
same,koff,activin A [9],0.0022 s⁻¹
same,kon,activin A [9],2e+06 M⁻¹ s⁻¹
same,Kd,activin B [10],1.7 nM
same,koff,activin B [10],0.0026 s⁻¹
same,kon,activin B [10],1.6e+06 M⁻¹ s⁻¹
same,Kd,BMP15 [11],1.7 nM
same,koff,BMP15 [11],0.048 s⁻¹
same,kon,BMP15 [11],2.8e+07 M⁻¹ s⁻¹
same,Kd,BMP10 [12],2.2 nM
same,koff,BMP10 [12],0.0018 s⁻¹
same,kon,BMP10 [12],800000 M⁻¹ s⁻¹
same,Kd,BMP9 [5],> 140 nM
